Data from PMC10203282, “Structural analysis of an endogenous 4-megadalton succinyl-CoA-generating metabolon” (Communications Biology, 2023).

How the values were obtained:
[1] = target: dihydrolipoyl succinyltransferase (E2o) of the oxoglutarate dehydrogenase complex (Chaetomium thermophilum (endogenous in the native cell extract)); test: cryo-EM structure; native SEC fraction of C. thermophilum lysate, 0.3 mg/mL, single-particle analysis with octahedral symmetry; E2o core map at 3.35 Å
[2] = substrate: CC(C)(COP(=O)(O)OP(=O)(O)OC[C@H]1O[C@@H](n2cnc3c(N)ncnc32)[C@H](O)[C@@H]1OP(=O)(O)O)[C@@H](O)C(=O)NCCC(=O)NCCS; test: cells, lysate or membranes; type: biochemical, Thermochaetoides thermophila; settings: native SEC fraction, 4 mM α-ketoglutarate, 3 mM NAD+, 2 mM ThDP, 2 mM MgCl2, 100 mM NaCl, 30 mM K2HPO4 pH 7.5, 37 °C, CoA 5-1000 µM, substrate excess inhibition, linear asymptote used

dihydrolipoyl succinyltransferase (E2o) of the oxoglutarate dehydrogenase complex (enzyme)
stoichiometry N [1]: 24

B1: OGDHc (E2o as CoA site) (Thermochaetoides thermophila DSM 1495) (protein)
chain: TYADKIIKVPQMAESITEGTLKQWNKAVGDYVEADEEIATIETDKIDVAVNAPEAGVIKEFFVNEEDTVLVGQDLVRLEVGGEKPAEAAKEQPKAAAPEPKVEEKKVPEAPAPEPSKTAAPAPAPPKQEAPASPKPASKPAETPAVTLGNREERRVKMNRMRLRIAERLKQSQNTAASLTTFNEVDMSALIEFRNKYKDEVLKKTGVKLGFMSAFSRAVVLAIRDLPVVNASIEGPNGGDTIVYRDYVDISVAVATEKGLVTPVVRNAETMDLITIEKTIAELGKKARDGKLTIEDMAGGTFTISNGGVFGSLMGTPIINLPQSAVLGLHAIKERPVAVNGKVEIRPMMYLALTYDHRLLDGREAVQFLVKVKEYIEDPRKMLL
notes: same complex as P1: endogenous native OGDHc in SEC fraction 6 of cell extract; with 2-oxoglutarate dehydrogenase, mitochondrial; Dihydrolipoyl dehydrogenase, mitochondrial; Alpha-ketoglutarate dehydrogenase subunit 4, mitochondrial
Km [2]: 22.81 ± 11.93 µM
